{"source": "patent US20250115889A1", "about": "(DENTERIC, published 2025)", "proteins": {"B1": {"name": "KDcAK1n-4S (other)", "chain": "NTGVSFANYTAHGSETAWADPLLTTSQLKALTNKDKWGDNTGYQFLLDADHNTFGSVIPATGPLFTGTASSNLYSANFEYLIPANADPVVTTQNIIVTGQGEVVIPGGVYDYSITNPEPASGKMWIAGDGGNQPARYDDFTFEAGKKYTFTMRRAGMGDGTDMEVEDDSPASYTYTVYRDGTKIKEGLTATTFEEDGVAAGNHEYSVEVKYTAGVSPKVSKDVTVEGSNEFAPVQNLTGSSVGQKVTLKWDAPNGTPNPNPNPNPNPGTTLSESFENGIPASWKTIDADGDGHGWKPGNAPGIAGYNSNGSVYSESFGLGGIGVLTPDNYLITPALDLPNGG", "notes": "also called chimera with all four Cysteine residues mutated to Serine"}, "B2": {"name": "rABM21-2XCys > Ser (other)", "chain": "ASYTYTVYRDGTKIKEGLTATTFEEDGVAAGNHEYSVEVKYTAGVSPKVSKDVTVEGSNEFAPVQNLTGSSVGQKVTLKWDAPN"}, "B3": {"name": "KDcAK1n (prior art chimera) (other)", "chain": "B1 chain with S113C, S206C, S220C, S311C", "notes": "also called original chimera"}, "B4": {"name": "KDcAK1nK (other)", "chain": "NTGVSFANYTAHGSETAWADPLLTTSQLKALTNKDKWGDNTGYQFLLDADHNTFGSVIPATGPLFTGTASSNLYSANFEYLIPANADPVVTTQNIIVTGQGEVVIPGGVYDYCITNPEPASGKMWIAGDGGNQPARYDDFTFEAGKKYTFTMRRAGMGDGTDMEVEDDSPASYTYTVYRDGTKIKEGLTATTFEEDGVAAGNHEYCVEVKYTAGVSPKVCKDVTVEGSNEFAPVQNLTGSSVGQKVTLKWDAPNGTPNPNPNPNPNPGTTLSESFENGIPASWKTIDADGDGHGWKPGNAPGIAGYNSNGCVYSESFGLGGIGVLTPDNYLITPALDLPNGGNTGVSFANYTAHGSETAWADPLLTTSQLKALTNKDK"}, "B5": {"name": "KDAK1n (other)", "chain": "NTGVSFANYTAHGSETAWADPLLTTSQLKALTNKDKAEGSREVKRIGDGLFVTIEPANDVRANEAKVVLAADNVWGDNTGYQFLLDADHNTFGSVIPATGPLFTGTASSNLYSANFEYLIPANADPVVTTQNIIVTGQGEVVIPGGVYDYCITNPEPASGKMWIAGDGGNQPARYDDFTFEAGKKYTFTMRRAGMGDGTDMEVEDDSPASYTYTVYRDGTKIKEGLTATTFEEDGVAAGNHEYCVEVKYTAGVSPKVCKDVTVEGSNEFAPVQNLTGSSVGQKVTLKWDAPNGTPNPNPNPNPNPGTTLSESFENGIPASWKTIDADGDGHGWKPGNAPGIAGYNSNGCVYSESFGLGGIGVLTPDNYLITPALDLPNGG"}, "B6": {"name": "KDAK1nK (other)", "chain": "NTGVSFANYTAHGSETAWADPLLTTSQLKALTNKDKAEGSREVKRIGDGLFVTIEPANDVRANEAKVVLAADNVWGDNTGYQFLLDADHNTFGSVIPATGPLFTGTASSNLYSANFEYLIPANADPVVTTQNIIVTGQGEVVIPGGVYDYCITNPEPASGKMWIAGDGGNQPARYDDFTFEAGKKYTFTMRRAGMGDGTDMEVEDDSPASYTYTVYRDGTKIKEGLTATTFEEDGVAAGNHEYCVEVKYTAGVSPKVCKDVTVEGSNEFAPVQNLTGSSVGQKVTLKWDAPNGTPNPNPNPNPNPGTTLSESFENGIPASWKTIDADGDGHGWKPGNAPGIAGYNSNGCVYSESFGLGGIGVLTPDNYLITPALDLPNGGNTGVSFANYTAHGSETAWADPLLTTSQLKALTNKDK"}, "B7": {"name": "KDcAK1n-4S-AVQP (other)", "chain": "B1 chain with P233A, N236P", "notes": "also called KDcAKIn-4S-AVQP; KDcAK1n PVQN>AVQP/4 Cys>Ser variant"}, "B8": {"name": "rABM21-AVQP-2X Cys > Ser (other)", "chain": "B2 chain with P63A, N66P", "notes": "also called ABM21-2S-AVQP"}, "B9": {"name": "rABM213 (other)", "chain": "ASYTYTVYRDGTKIKEGLTATTFEEDGVAAGNHEYCVEVKYTAGVSPKVCKDVTVEGSNEFAPVQNLTGSSVGQKVTLKWDAPNGTPNPNPNPNPNPGT", "notes": "also called recombinant protein encoding ABM2(1), ABM1(2) and ABM3"}, "B10": {"name": "rABM21 (other)", "chain": "B2 chain with S36C, S50C", "notes": "also called recombinant ABM21; recombinant protein encoding ABM2(1) and ABM1(2)"}, "B11": {"name": "rABM21-AVQN (other)", "chain": "B2 chain with S36C, S50C, P63A"}, "B12": {"name": "rABM21-AVQA (other)", "chain": "B2 chain with S36C, S50C, P63A, N66A"}, "B13": {"name": "rABM21-AVQP (other)", "chain": "B2 chain with S36C, S50C, P63A, N66P"}, "B14": {"name": "rABM21-AVQA-2X Cys > Ser (other)", "chain": "B2 chain with P63A, N66A"}, "B15": {"name": "rABM21-SSEYQ (other)", "chain": "ASYTYTVYRDGTKIKEGLTATTFEEDGVAAGNHEYCVEVKYTAGVSPKVCKDVTVEGSSEYQPVQNLTGSSVGQKVTLKWDAPNGT", "notes": "also called SSEYQ variant"}, "B16": {"name": "rABM21--Y > A (other)", "chain": "B2 chain with Y5A, S36C, S50C"}, "B17": {"name": "DUF-ABM213 (other)", "chain": "AEGSREVKRIGDGLFVTIEPANDVRANEAKVVLAADNVWGDNTGYQFLLDADHNTFGSVIPATGPLFTGTASSNLYSANFEYLIPANADPVVTTQNIIVTGQGEVVIPGGVYDYCITNPEPASGKMWIAGDGGNQPARYDDFTFEAGKKYTFTMRRAGMGDGTDMEVEDDSPASYTYTVYRDGTKIKEGLTATTFEEDGVAAGNHEYCVEVKYTAGVSPKVCKDVTVEGSNEFAPVQNLTGSSVGQKVTLKWDAPNGTPNPNPNPNPNPGT", "notes": "also called DUF2436 domain plus ABMs"}, "B18": {"name": "rABM21-Y > A/W > A (other)", "chain": "B15 chain with Y5A, S59N, Y61F, Q62A, W80A"}, "B19": {"name": "DUF (other)", "chain": "AEGSREVKRIGDGLFVTIEPANDVRANEAKVVLAADNVWGDNTGYQFLLDADHNTFGSVIPATGPLFTGTASSNLYSANFEYLIPANADPVVTTQNIIVTGQGEVVIPGGVYDYCITNPEPASGKMWIAGDGGNQPARYDDFTFEAGKKYTFTMRRAGMGDGTDM", "notes": "also called DUF2436 domain; not shown: C-terminal His tag"}, "B20": {"name": "KDAK1n-4S-AVQP (other)", "chain": "B5 chain with C151S, C244S, C258S, P271A, N274P, C349S", "notes": "also called KDAK1n mutant"}}, "key": {"[1]": {"target": "the molecule itself", "assay": "native PAGE with and without DTT, self-association (multimer ladder)"}, "[2]": {"target": "the molecule itself", "assay": "native PAGE of small scale purified protein, self-association (multimers)"}, "[3]": {"target": "the molecule itself", "assay": "native PAGE of small scale purified protein, self-association (multimer bands)"}, "[4]": {"target": "the molecule itself", "assay": "native PAGE of small scale purified protein, self-association (multimer ladder)"}, "[5]": {"target": "the molecule itself", "assay": "Native PAGE without DTT; self-association (ability to form multimers)"}, "[6]": {"target": "the molecule itself", "assay": "column 'Multimer [yes/no]'; self-association"}}, "note": "Residue numbers refer to the chain shown, from its start."}
{"protein": "B1", "values": [{"measurement": "binding result", "setting": "[1]", "result": "binds"}]}
{"protein": "B2", "values": [{"measurement": "binding result", "setting": "[1]", "result": "binds"}]}
{"protein": "B3", "values": [{"measurement": "binding result", "setting": "[2]", "result": "binds"}]}
{"protein": "B4", "values": [{"measurement": "binding result", "setting": "[3]", "result": "binds"}]}
{"protein": "B5", "values": [{"measurement": "binding result", "setting": "[4]", "result": "binds"}]}
{"protein": "B6", "values": [{"measurement": "binding result", "setting": "[4]", "result": "binds"}]}
{"protein": "B7", "values": [{"measurement": "binding result", "setting": "[1]", "result": "no binding"}]}
{"protein": "B8", "values": [{"measurement": "binding result", "setting": "[1]", "result": "no binding"}]}
{"protein": "B9", "values": [{"measurement": "binding result", "setting": "[5]", "result": "binds"}]}
{"protein": "B10", "values": [{"measurement": "binding result", "setting": "[5]", "result": "binds"}]}
{"protein": "B11", "values": [{"measurement": "binding result", "setting": "[5]", "result": "binds"}]}
{"protein": "B12", "values": [{"measurement": "binding result", "setting": "[5]", "result": "binds"}]}
{"protein": "B13", "values": [{"measurement": "binding result", "setting": "[5]", "result": "binds"}]}
{"protein": "B14", "values": [{"measurement": "binding result", "setting": "[5]", "result": "binds"}]}
{"protein": "B15", "values": [{"measurement": "binding result", "setting": "[5]", "result": "binds"}]}
{"protein": "B16", "values": [{"measurement": "binding result", "setting": "[5]", "result": "binds"}]}
{"protein": "B17", "values": [{"measurement": "binding result", "setting": "[6]", "result": "binds"}]}
{"protein": "B18", "values": [{"measurement": "binding result", "setting": "[5]", "result": "no binding"}]}
{"protein": "B19", "values": [{"measurement": "binding result", "setting": "[6]", "result": "no binding"}]}
{"protein": "B20", "values": [{"measurement": "binding result", "setting": "[6]", "result": "no binding"}]}
